Test results from patent US7122190.

Legend:
[1] = target: viral gp41 (HIV-1IIIB transmembrane protein on infected cells and virions) (HIV-1IIIB) (UniProt P04578); assay: cell-based or functional assay
[2] = target: viral gp41 of HIV-1 (on virions and HIV-1 infected cells) (HIV-1) (UniProt P03377); assay: cell-based or functional assay

Question: How did the Cell fusion (IC90) [1] turn out when “M41 (maltose binding protein fused to the extracellular domain of HIV-1 gp41, residues 540-686) (from UniProt P03377 540-686)” was run?
Answer: > 50 µM

Question: What about the HIV infectivity (IC90) [1] of the same substance?
Answer: > 16 µM

Question: Which 90% block of syncytia formation (HIV-1IIIB cell fusion assay) [2] does the source give for “M41-P, M41 with an Ile to Pro mutation at position 578 (from UniProt P03377 540-686)” here?
Answer: 85 nM

Question: What about the 90% neutralisation of HIV-1IIIB infection [2] of the same substance?
Answer: 70 nM
